These results are taken from patent US20130280259A1, “USE OF ANTIBODIES AGAINST NK1, NK2 AND/OR NK3 RECEPTORS IN CANCER TREATMENT” (SERVICIO ANDALUZ DE SALUD, priority 2010, published 2013).

Common to all, as to assay: cell-based or functional assay
In experiment [1] the target is NK3 receptor (human) (UniProt P29371).
The target of experiment [2] is NK1 receptor (human) (UniProt P25103).
Experiment [3] deals with NK1, NK2 and NK3 receptors.

Chain of UniProt P29371 (P29371 whole entry): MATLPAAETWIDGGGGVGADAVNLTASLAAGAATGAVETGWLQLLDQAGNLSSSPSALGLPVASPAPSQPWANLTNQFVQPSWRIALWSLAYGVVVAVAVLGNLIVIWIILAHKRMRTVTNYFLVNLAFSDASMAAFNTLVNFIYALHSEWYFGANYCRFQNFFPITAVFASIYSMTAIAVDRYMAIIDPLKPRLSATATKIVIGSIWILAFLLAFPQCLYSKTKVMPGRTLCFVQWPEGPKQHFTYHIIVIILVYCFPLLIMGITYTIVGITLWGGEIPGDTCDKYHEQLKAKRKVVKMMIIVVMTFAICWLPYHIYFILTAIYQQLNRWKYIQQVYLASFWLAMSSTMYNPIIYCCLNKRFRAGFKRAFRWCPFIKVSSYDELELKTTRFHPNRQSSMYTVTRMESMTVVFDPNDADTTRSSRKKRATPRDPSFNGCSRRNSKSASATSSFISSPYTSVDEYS
Chain of UniProt P25103 (P25103 whole entry): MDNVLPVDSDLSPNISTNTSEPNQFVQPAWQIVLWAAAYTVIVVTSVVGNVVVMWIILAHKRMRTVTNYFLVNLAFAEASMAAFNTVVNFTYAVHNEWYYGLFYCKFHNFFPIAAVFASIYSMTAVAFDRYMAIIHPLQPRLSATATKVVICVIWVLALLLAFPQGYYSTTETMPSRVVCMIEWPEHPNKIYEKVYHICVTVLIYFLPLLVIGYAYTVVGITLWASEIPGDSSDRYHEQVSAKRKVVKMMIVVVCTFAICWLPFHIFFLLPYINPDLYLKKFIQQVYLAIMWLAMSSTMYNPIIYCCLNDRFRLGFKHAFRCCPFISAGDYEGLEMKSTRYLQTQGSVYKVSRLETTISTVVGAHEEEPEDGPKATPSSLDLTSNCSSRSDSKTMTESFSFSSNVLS

For “anti-NK3 antibody (Sigma-Aldrich, product number HPA009418)”, in experiment [1], the % of fibroblast cells with expression for MMP-3; anti-NK3 (1/100) and Substance P (1 µM) came to 0%; the % of fibroblast cells with expression for MMP-7; anti-NK3 (1/100) and Substance P (1 µM) was determined as 0%; the % of fibroblast cells with expression for MMP-9; anti-NK3 (1/100) and Substance P (1 µM) was found to be 0%; the % of fibroblast cells with expression for MMP-11; anti-NK3 (1/100) and Substance P (1 µM) was 0%. Further, in experiment [1], the % of fibroblast cells with expression for MMP-13; anti-NK3 (1/100) and Substance P (1 µM) was 0%; the % of fibroblast cells with expression for MMP-14; anti-NK3 (1/100) and Substance P (1 µM) was 0%; the % of fibroblast cells with expression for SPARC; anti-NK3 (1/100) and Substance P (1 µM) came out at 0%; the % of fibroblast cells with expression for TGF-alpha; anti-NK3 (1/100) and Substance P (1 µM) is 0%. Besides, in experiment [1], the % of fibroblast cells with expression for TGF-beta 1; anti-NK3 (1/100) and Substance P (1 µM) stood at 0%; the % of fibroblast cells with expression for TGF-beta 2; anti-NK3 (1/100) and Substance P (1 µM) worked out at 0%; the % of fibroblast cells with expression for TGF-beta 3; anti-NK3 (1/100) and Substance P (1 µM) amounted to 0%; the % of mononuclear cells with expression for NF-kB; anti-NK3 (1/100) and Substance P (1 µM) stood at 0%. In experiment [1], this molecule came in with a % of mononuclear cells with expression for TGF-beta; anti-NK3 (1/100) and Substance P (1 µM) of 0%; a % of polymorphonuclear cells with expression for NF-kB; anti-NK3 (1/100) of 0%; a % of polymorphonuclear cells with expression for TGF-beta; anti-NK3 (1/100) of 0%.

Take “anti-NK1 antibody (Sigma-Aldrich, product number S8305)”: in experiment [2], the % of fibroblast cells with expression for MMP-3; anti-NK1 (1/100) and Substance P (1 µM) was 0%; the % of fibroblast cells with expression for MMP-7; anti-NK1 (1/100) and Substance P (1 µM) was 0%; the % of fibroblast cells with expression for MMP-9; anti-NK1 (1/100) and Substance P (1 µM) worked out at 0%; the % of fibroblast cells with expression for MMP-11; anti-NK1 (1/100) and Substance P (1 µM) amounted to 0%. In experiment [2], this molecule registered a % of fibroblast cells with expression for MMP-13; anti-NK1 (1/100) and Substance P (1 µM) of 0%; a % of fibroblast cells with expression for MMP-14; anti-NK1 (1/100) and Substance P (1 µM) of 0%; a % of fibroblast cells with expression for SPARC; anti-NK1 (1/100) and Substance P (1 µM) of 0%; a % of fibroblast cells with expression for TGF-alpha; anti-NK1 (1/100) and Substance P (1 µM) of 0%. Moreover, in experiment [2], the % of fibroblast cells with expression for TGF-beta 1; anti-NK1 (1/100) and Substance P (1 µM) worked out at 0%; the % of fibroblast cells with expression for TGF-beta 2; anti-NK1 (1/100) and Substance P (1 µM) turned out to be 0%; the % of fibroblast cells with expression for TGF-beta 3; anti-NK1 (1/100) and Substance P (1 µM) amounted to 0%; the % of mononuclear cells with expression for NF-kB; anti-NK1 (1/100) and Substance P (1 µM) is 0%. In experiment [2], this molecule gave a % of mononuclear cells with expression for TGF-beta; anti-NK1 (1/100) and Substance P (1 µM) of 0%; a % of polymorphonuclear cells with expression for NF-kB; anti-NK1 (1/100) of 0%; a % of polymorphonuclear cells with expression for TGF-beta; anti-NK1 (1/100) of 0%.

B1: Substance P (product no. S6883; Sigma-Aldrich) (peptide, UniProt P20366 58-68, looked up)
peptide: RPKPQQFFGLM
For B1, in experiment [3], the % of fibroblast cells with expression for MMP-3; Substance P (1 µM) came out at 33.9%, the % of fibroblast cells with expression for MMP-7; Substance P (1 µM) was 46.2%, the % of fibroblast cells with expression for MMP-9; Substance P (1 µM) is 35.5% and the % of fibroblast cells with expression for MMP-11; Substance P (1 µM) turned out to be 7.8%. In experiment [3], this molecule came in with a % of fibroblast cells with expression for MMP-13; Substance P (1 µM) of 17.1%, a % of fibroblast cells with expression for MMP-14; Substance P (1 µM) of 47.3%, a % of fibroblast cells with expression for SPARC; Substance P (1 µM) of 16% and a % of fibroblast cells with expression for TGF-alpha; Substance P (1 µM) of 16.5%. In experiment [3], the % of fibroblast cells with expression for TGF-beta 1; Substance P (1 µM) stood at 18.4%, the % of fibroblast cells with expression for TGF-beta 2; Substance P (1 µM) worked out at 24.6%, the % of fibroblast cells with expression for TGF-beta 3; Substance P (1 µM) is 23.1% and the % of mononuclear cells with expression for NF-kB; Substance P (1 µM) was determined as 25.7%. In addition, in experiment [3], the % of mononuclear cells with expression for TGF-beta; Substance P (1 µM) was 16.4%, the % of polymorphonuclear cells with expression for NF-kB; Substance P (1 µM) was 17.5% and the % of polymorphonuclear cells with expression for TGF-beta; Substance P (1 µM) is 36.8%.
